B5: Biotinylated human β-glucocerebrosidase (residues 40A-536R) (enzyme)
chain: ARPCIPKSFGYSSVVCVCNATYCDSFDPPTFPALGTFSRYESTRSGRRMELSMGPIQANHTGTGLLLTLQPEQKFQKVKGFGGAMTDAAALNILALSPPAQNLLLKSYFSEEGIGYNIIRVPMASCDFSIRTYTYADTPDDFQLHNFSLPEEDTKLKIPLIHRALQLAQRPVSLLASPWTSPTWLKTNGAVNGKGSLKGQPGDIYHQTWARYFVKFLDAYAEHKLQFWAVTAENEPSAGLLSGYPFQCLGFTPEHQRDFIARDLGPTLANSTHHNVRLLMLDDQRLLLPHWAKVVLTDPEAAKYVHGIAVHWYLDFLAPAKATLGETHRLFPNTMLFASEACVGSKFWEQSVRLGSWDRGMQYSHSIITNLLYHVVGWTDWNLALNPEGGPNWVRNFVDSPIIVDITKDTFYKQPMFYHLGHFSKFIPEGSQRVGLVASQKNDLDAVALMHPDGSAVVVVLNRSSKDVPLTIKDPAVGFLETISPGYSIHTYLWRRQ
modifications: biotin (in vivo biotinylated by BirA)

The target of assay [1] is B5. Put plainly: SPR; 2 mM M6P. Background: Surface plasmon resonance follows binding to a sensor surface in real time, without labels.
In assay [2] the target is B5. Put plainly: SPR; 2 mM G6P.
Assay [3] concerns the target T1, Biotinylated human CI-MPR domains I-XV (residues 41Q-G2293) (human, UniProt P11717 41-2293, biotin (in vivo biotinylated by BirA)). Description: SPR; 2 mM G6P.
For assay [4], the target named is B5. Put plainly: SPR; 2 mM mannose.
The target in assay [5] is T1, Biotinylated human CI-MPR domains I-XV …. Put plainly: SPR; 2 mM mannose.
Assay [6] deals with B5. Description: SPR.
The target of assay [7] is B5. Description: SPR; pH 6.5.
For assay [8], the target named is T1, Biotinylated human CI-MPR domains I-XV …. Description: SPR; with 2 mM mannose.
Assay [9] shares this target. Put plainly: SPR; buffer without sugar.
The target of assay [10] is T2, H150T mutant LIMP-2 (human, UniProt Q14108 28-432, H150T).
T2 sequence: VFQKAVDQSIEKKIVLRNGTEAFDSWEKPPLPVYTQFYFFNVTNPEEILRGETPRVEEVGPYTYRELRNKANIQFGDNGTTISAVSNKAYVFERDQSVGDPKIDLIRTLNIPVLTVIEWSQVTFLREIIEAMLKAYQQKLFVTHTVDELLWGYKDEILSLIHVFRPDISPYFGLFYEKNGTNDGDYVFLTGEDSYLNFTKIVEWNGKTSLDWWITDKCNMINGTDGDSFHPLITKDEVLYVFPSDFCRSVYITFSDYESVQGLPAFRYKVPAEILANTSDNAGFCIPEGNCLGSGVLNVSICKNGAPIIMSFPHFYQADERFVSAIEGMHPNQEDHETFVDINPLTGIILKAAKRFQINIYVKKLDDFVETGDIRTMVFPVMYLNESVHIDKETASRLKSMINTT
Description: SPR; pH 6.5.

The target in assay [11] is T2, H150T mutant LIMP-2. Description: SPR; pH 5.5.

T1 sequence (P11717 41-2293): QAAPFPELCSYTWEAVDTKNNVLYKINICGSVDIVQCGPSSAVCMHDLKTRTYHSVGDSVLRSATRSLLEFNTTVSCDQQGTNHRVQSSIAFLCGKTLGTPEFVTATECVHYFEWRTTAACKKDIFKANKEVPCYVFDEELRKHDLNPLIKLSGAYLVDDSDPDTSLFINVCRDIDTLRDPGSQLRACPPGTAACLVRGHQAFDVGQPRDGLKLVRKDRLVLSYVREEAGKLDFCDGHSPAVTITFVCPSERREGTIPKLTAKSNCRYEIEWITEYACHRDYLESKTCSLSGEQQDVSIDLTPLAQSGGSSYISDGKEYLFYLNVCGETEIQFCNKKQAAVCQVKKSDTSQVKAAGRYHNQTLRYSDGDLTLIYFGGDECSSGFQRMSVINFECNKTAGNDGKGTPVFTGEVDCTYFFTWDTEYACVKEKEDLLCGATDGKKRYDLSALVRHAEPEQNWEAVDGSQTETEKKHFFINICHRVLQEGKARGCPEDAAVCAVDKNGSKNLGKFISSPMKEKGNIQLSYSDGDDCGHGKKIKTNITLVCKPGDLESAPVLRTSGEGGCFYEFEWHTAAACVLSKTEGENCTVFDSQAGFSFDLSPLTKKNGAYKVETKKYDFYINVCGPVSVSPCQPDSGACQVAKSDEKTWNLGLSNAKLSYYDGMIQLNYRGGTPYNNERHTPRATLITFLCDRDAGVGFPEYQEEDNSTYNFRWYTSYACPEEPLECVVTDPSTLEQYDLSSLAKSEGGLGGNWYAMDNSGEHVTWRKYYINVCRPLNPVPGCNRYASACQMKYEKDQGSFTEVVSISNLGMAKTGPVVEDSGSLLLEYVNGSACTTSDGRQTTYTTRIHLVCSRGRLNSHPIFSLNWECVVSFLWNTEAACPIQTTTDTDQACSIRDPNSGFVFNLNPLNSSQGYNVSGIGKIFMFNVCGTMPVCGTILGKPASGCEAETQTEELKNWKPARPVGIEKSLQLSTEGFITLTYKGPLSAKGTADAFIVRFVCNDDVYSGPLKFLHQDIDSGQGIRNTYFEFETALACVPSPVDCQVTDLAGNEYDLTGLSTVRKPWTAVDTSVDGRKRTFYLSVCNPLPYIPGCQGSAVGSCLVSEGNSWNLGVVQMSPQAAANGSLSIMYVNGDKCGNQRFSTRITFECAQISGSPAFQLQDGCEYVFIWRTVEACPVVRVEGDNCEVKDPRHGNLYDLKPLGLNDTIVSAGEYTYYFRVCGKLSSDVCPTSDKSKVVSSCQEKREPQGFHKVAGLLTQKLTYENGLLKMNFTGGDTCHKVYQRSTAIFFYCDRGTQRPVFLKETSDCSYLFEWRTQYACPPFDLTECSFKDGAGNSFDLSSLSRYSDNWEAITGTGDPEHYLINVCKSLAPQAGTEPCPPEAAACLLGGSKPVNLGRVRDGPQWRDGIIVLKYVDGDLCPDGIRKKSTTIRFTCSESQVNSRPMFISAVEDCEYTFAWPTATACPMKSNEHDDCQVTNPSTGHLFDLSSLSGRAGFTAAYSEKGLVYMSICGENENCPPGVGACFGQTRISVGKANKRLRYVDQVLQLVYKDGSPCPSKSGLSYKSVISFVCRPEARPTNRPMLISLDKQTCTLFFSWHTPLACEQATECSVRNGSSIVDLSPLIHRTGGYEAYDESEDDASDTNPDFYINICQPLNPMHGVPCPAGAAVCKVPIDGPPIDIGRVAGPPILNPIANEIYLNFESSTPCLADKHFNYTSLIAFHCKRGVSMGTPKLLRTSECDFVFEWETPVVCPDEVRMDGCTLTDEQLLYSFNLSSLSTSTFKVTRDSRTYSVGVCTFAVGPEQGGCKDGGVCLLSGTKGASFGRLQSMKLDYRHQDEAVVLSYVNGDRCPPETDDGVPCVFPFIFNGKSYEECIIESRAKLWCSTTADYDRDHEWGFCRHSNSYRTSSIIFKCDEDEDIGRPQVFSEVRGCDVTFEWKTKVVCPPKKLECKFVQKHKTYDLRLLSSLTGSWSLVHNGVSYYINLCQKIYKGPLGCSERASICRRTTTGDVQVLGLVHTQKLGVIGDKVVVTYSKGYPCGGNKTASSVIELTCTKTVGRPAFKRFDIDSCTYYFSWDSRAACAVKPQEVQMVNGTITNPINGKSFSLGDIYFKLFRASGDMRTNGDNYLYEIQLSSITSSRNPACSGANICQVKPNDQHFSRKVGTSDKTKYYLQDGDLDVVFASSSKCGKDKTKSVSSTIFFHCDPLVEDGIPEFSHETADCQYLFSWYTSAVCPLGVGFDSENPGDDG

B1: Human LIMP-2 luminal domain (residues 28-431) produced from HEK293T cells, with full glycosylation (domain or fragment)
chain: VFQKAVDQSIEKKIVLRNGTEAFDSWEKPPLPVYTQFYFFNVTNPEEILRGETPRVEEVGPYTYRELRNKANIQFGDNGTTISAVSNKAYVFERDQSVGDPKIDLIRTLNIPVLTVIEWSQVHFLREIIEAMLKAYQQKLFVTHTVDELLWGYKDEILSLIHVFRPDISPYFGLFYEKNGTNDGDYVFLTGEDSYLNFTKIVEWNGKTSLDWWITDKCNMINGTDGDSFHPLITKDEVLYVFPSDFCRSVYITFSDYESVQGLPAFRYKVPAEILANTSDNAGFCIPEGNCLGSGVLNVSICKNGAPIIMSFPHFYQADERFVSAIEGMHPNQEDHETFVDINPLTGIILKAAKRFQINIYVKKLDDFVETGDIRTMVFPVMYLNESVHIDKETASRLKSMINT
modifications: full glycosylation
B1: the Kd (commonly the concentration at which binding is half-saturated) amounted to 2100 nM in assay [1]; 1800 nM in assay [2]; 1160 nM in assay [3]; 2830 nM in [4]; 1200 nM in [5]; 2060 nM in assay [6].

B2: Wild-type LIMP-2 (soluble luminal domain; producing cells not stated for the experiment) (domain or fragment)
chain: VFQKAVDQSIEKKIVLRNGTEAFDSWEKPPLPVYTQFYFFNVTNPEEILRGETPRVEEVGPYTYRELRNKANIQFGDNGTTISAVSNKAYVFERDQSVGDPKIDLIRTLNIPVLTVIEWSQVHFLREIIEAMLKAYQQKLFVTHTVDELLWGYKDEILSLIHVFRPDISPYFGLFYEKNGTNDGDYVFLTGEDSYLNFTKIVEWNGKTSLDWWITDKCNMINGTDGDSFHPLITKDEVLYVFPSDFCRSVYITFSDYESVQGLPAFRYKVPAEILANTSDNAGFCIPEGNCLGSGVLNVSICKNGAPIIMSFPHFYQADERFVSAIEGMHPNQEDHETFVDINPLTGIILKAAKRFQINIYVKKLDDFVETGDIRTMVFPVMYLNESVHIDKETASRLKSMINT
In assay [7], B2 registered a Kd of 1200 nM.

B3: Human LIMP-2 luminal domain (residues 28-431) produced from HEK293S (GnTI-) cells, with limited glycosylation (domain or fragment)
chain: VFQKAVDQSIEKKIVLRNGTEAFDSWEKPPLPVYTQFYFFNVTNPEEILRGETPRVEEVGPYTYRELRNKANIQFGDNGTTISAVSNKAYVFERDQSVGDPKIDLIRTLNIPVLTVIEWSQVHFLREIIEAMLKAYQQKLFVTHTVDELLWGYKDEILSLIHVFRPDISPYFGLFYEKNGTNDGDYVFLTGEDSYLNFTKIVEWNGKTSLDWWITDKCNMINGTDGDSFHPLITKDEVLYVFPSDFCRSVYITFSDYESVQGLPAFRYKVPAEILANTSDNAGFCIPEGNCLGSGVLNVSICKNGAPIIMSFPHFYQADERFVSAIEGMHPNQEDHETFVDINPLTGIILKAAKRFQINIYVKKLDDFVETGDIRTMVFPVMYLNESVHIDKETASRLKSMINT
modifications: N-linked P-Man9GlcNAc2 (with terminal mannose 6-phosphate) at N325; sugars on all nine N-linked glycosylation sites, limited processing
As to B3, the dissociation constant Kd in assay [8] was found to be 1880 nM; in assay [9], 1800 nM.

B4: Human LIMP-2 luminal domain produced from HEK293S (GNTI-) cells and deglycosylated with endoglycosidase F1 (domain or fragment)
chain: VFQKAVDQSIEKKIVLRNGTEAFDSWEKPPLPVYTQFYFFNVTNPEEILRGETPRVEEVGPYTYRELRNKANIQFGDNGTTISAVSNKAYVFERDQSVGDPKIDLIRTLNIPVLTVIEWSQVHFLREIIEAMLKAYQQKLFVTHTVDELLWGYKDEILSLIHVFRPDISPYFGLFYEKNGTNDGDYVFLTGEDSYLNFTKIVEWNGKTSLDWWITDKCNMINGTDGDSFHPLITKDEVLYVFPSDFCRSVYITFSDYESVQGLPAFRYKVPAEILANTSDNAGFCIPEGNCLGSGVLNVSICKNGAPIIMSFPHFYQADERFVSAIEGMHPNQEDHETFVDINPLTGIILKAAKRFQINIYVKKLDDFVETGDIRTMVFPVMYLNESVHIDKETASRLKSMINT
modifications: glycans trimmed to a single N-acetylglucosamine with endoglycosidase F1
B4 gave a dissociation constant Kd in assay [6] of 3000 nM.
B5: the Kd with H150T mutant LIMP-2 [10] is 2300 nM; with H150T mutant LIMP-2 [11] it was 2100 nM.

The record behind these values is PMC4104448 (2014).
